Drawing on patent US20240352434, “COMPOSITIONS COMPRISING A VARIANT CAS12I3 POLYPEPTIDE AND USES THEREOF” (Arbor Biotechnologies, Inc., published 2024), this text covers binding signal for three molecules.

The labels stand for the following.
B1: VEGFA_T2 crRNA ; VEGFA_T2 target (ssRNA ; dsDNA)
RNA: AUAGUGUGUCCUUAGUUGACAUAAUCCUCCACCAGUCAUGGU
DNA 1: AATCCTCCACCAGTCATGGT
DNA 2: ACCATGACTGGTGGAGGATT
B2: AAVS1_T3 crRNA ; AAVS1_T3 target (ssRNA ; dsDNA)
RNA: AUAGUGUGUCCUUAGUUGACAUGUGAGAAUGGUGCGUCCUAG
DNA 1: GTGAGAATGGTGCGTCCTAG
DNA 2: CTAGGACGCACCATTCTCAC
B3: EMX1_T5 crRNA ; EMX1_T5 target (ssRNA ; dsDNA)
RNA: AUAGUGUGUCCUUAGUUGACAUUAUUAUUCCCAUAGGGAAGG
DNA 1: TATTATTCCCATAGGGAAGG
DNA 2: CCTTCCCTATGGGAATAATA

Changes are numbered by the printed parent chain.

The first data set addresses T1, Cas12i3 K583R (Unidentified, K583R).
T1 chain: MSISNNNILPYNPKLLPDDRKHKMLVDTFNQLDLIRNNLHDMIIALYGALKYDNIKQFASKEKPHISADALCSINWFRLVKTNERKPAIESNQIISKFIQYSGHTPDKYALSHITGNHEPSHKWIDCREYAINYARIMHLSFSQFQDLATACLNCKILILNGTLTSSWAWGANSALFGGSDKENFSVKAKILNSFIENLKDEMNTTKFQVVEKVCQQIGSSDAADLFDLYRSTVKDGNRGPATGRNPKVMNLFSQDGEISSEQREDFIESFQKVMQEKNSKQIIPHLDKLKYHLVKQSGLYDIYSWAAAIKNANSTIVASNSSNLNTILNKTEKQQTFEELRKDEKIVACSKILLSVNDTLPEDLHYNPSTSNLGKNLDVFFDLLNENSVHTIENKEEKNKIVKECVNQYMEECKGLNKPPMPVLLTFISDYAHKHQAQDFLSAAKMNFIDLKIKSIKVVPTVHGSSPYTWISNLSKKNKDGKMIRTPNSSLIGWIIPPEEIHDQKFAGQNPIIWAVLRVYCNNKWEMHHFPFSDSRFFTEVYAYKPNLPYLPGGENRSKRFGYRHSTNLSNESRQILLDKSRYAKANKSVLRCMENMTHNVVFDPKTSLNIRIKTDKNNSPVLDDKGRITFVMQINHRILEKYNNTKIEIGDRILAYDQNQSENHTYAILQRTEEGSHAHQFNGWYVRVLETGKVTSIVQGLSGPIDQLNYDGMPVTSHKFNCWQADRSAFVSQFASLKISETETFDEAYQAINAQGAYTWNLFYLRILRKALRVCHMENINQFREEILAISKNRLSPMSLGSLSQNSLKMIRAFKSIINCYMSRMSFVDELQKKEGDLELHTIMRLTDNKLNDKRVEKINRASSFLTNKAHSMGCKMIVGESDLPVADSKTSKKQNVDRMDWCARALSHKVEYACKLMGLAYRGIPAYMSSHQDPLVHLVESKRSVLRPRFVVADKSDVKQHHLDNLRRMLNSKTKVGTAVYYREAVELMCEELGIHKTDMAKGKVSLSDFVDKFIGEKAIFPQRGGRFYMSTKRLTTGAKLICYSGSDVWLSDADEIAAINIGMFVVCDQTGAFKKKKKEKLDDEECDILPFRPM
Put plainly: cell_activity; fold change in % indels, HEK293T; PAM not stated in example. The essentials:
(§1)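 HEK293T cells lipofected with Lipofectamine 2000 (crRNA omitted in negative controls). Harvested 72 h post-transfection and lysed in QuickExtract. Target loci amplified by two-round PCR and sequenced on NextSeq (150 cycles) to quantify % indels.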
Turning to B1, the binding signal was 1.74 fold of wild-type.

For the molecule B2, the binding signal was 1.81 fold of wild-type.

B3: the binding signal is 1.3 fold of wild-type.

Another data set concerns the target T2, Cas12i3 S801R (Unidentified, S801R).
T2 chain: T1 chain with R583K, S801R
The description is as above. Summed up: as §1
For the molecule B1, the binding signal is 1.74 fold of wild-type.

Regarding B2, the binding signal is 2.2 fold of wild-type.

In the case of B3, the binding signal is 1.44 fold of wild-type.
